# Source: US20210032331A1 (PHANES THERAPEUTICS, published 2021)
# T1: human LAG-3(ECD)-mFc (human, UniProt P18627 23-450)
# T1 construct: also called hLAG3-mFc; human LAG-3 extracellular domain (ECD) fused to mouse Fc; not shown: mouse Fc
# T1 sequence: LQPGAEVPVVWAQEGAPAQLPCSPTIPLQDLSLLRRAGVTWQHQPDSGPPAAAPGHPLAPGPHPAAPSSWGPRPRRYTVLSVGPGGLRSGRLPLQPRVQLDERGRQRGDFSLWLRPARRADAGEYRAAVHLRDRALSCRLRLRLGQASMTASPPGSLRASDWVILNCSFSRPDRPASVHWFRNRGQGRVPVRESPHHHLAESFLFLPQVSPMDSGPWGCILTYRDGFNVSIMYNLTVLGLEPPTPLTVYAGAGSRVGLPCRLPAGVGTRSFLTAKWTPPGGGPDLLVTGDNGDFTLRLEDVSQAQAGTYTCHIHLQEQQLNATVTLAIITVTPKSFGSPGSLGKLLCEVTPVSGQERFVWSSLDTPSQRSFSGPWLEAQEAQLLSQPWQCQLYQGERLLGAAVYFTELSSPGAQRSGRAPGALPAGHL
# Biological target: T1, human LAG-3(ECD)-mFc
# Assay: FACS competition: mAb preincubated with human LAG-3(ECD)-mFc (1 ug/ml); binding to MHC class II on Daudi cells detected with anti-mouse Fc-PE
# Protocol: Human Daudi cells were cultured in RPMI+10% FBS. Human LAG-3(ECD)-mFc protein (human LAG-3 ECD fused to mouse Fc) at 1 μg/ml final concentration was incubated with purified mouse, humanized, or chimeric anti-LAG-3 mAbs at various concentrations for 15 minutes at 4° C. The mixture was then added to 100,000 human Daudi cells in a 96-well round bottom plate, mixed and incubated for 15 minutes on ice. Cells were then centrifuged at 1,000 rpm for 5 minutes and washed with FACS buffer (PBS supplemented with 5% BSA) three times. The cells were then incubated with PE-conjugated goat anti-mouse Fc polyclonal antibodies on ice for 15 minutes, washed with FACS buffer three times and then resuspended in FACS buffer containing 0.1 μg/ml PI (propidine iodine) for live/dead cell gating. Cells were then run through the FACS Caliber instrument and the data were analyzed by the Flowjo software. Results of the inhibition of LAG-3 binding to Daudi cells by chimeric mAbs B1C, B3C, B4C, BSC, B9C, and B11C are shown in FIG. 4B.
# The mouse anti-hLAG-3 mAbs B5 and B7 were humanized to reduce the potential of immunogenicity when used in human patients. The CDRs in both the heavy and light chains of the mouse mAb were grafted into human framework that have the highest possibility of maintaining the proper structure required for antigen binding. Backmutations from human reside to mouse residue were designed when necessary. The sequences of the humanized VH and VL regions are shown in Table 11 and Table 12, respectively. The humanized VH and VL regions were fused to the constant regions of human IgG4 heavy chain and kappa light chain, respectively, to generate humanized mAbs. Constructs corresponding to the mAb sequences were used for transient transfection in 293E cells. Purified mAbs were analyzed for their ability to inhibit hLAG-3 binding to MHC class II molecules on Daudi cells.
row,Binder,IC50 [nM]
1,"B5(H3L2) (antibody, V domains shown, Humanized VH and VL fused to constant regions of human IgG4 heavy chain and kappa light chain; also called humanized B5 with B5/H3 heavy chain and B5/L2 light chain) VH: QVQLVQSGAVVKKPGASVKMSCKASGYTFTGYYMNWMRQAPGQSLEWLAVINPYNGDTAYNRKFKGRATLTVDKSTSTAYMELSSLRSEDTAVYYCARDDGYHVRFFDVWGQGTTVTVSS VL: DIQMTQSPSSLSASVGDRVTITCRSSQDISDYLSWLQQKPGGAIKSLIYSTSTLDSGVPSRFSGSRSGTDFTLTISSLQPEDFATYYCLQYASSPPTFGGGTKVEIK",2.85
2,"B5(H1L4) (antibody, V domains shown, Humanized VH and VL fused to constant regions of human IgG4 heavy chain and kappa light chain; also called B5(HIL4); humanized B5 with B5/H1 heavy chain and B5/L4 light chain) VH: QVQLVQSGAEVKKPGASVKMSCKASGYTFTGYYMNWVRQAPGQSLEWLGVINPYNGDTAYNRKFKGRVTLTVDKSTSTVYMELSSLRSEDTAVYYCARDDGYHVRFFDVWGQGTTVTVSS VL: DIQMTQSPSSLSASVGDRVTITCRSSQDISDYLSWLQQKPGGAIKRLIYSTSTLDSGVPKRFSGSRSGSDYTLTISSLQPEDFATYYCLQYASSPPTFGGGTKVEIK",0.98
3,"B5(H2L2) (antibody, V domains shown, Humanized VH and VL fused to constant regions of human IgG4 heavy chain and kappa light chain; also called humanized B5 with B5/H2 heavy chain and B5/L2 light chain) VH: QVQLVQSGAEVKKPGASVKMSCKASGYTFTGYYMNWMRQAPGQSLEWLGVINPYNGDTAYNRKFKGRVTLTVDKSTSTAYMELSSLRSEDTAVYYCARDDGYHVRFFDVWGQGTTVTVSS VL: DIQMTQSPSSLSASVGDRVTITCRSSQDISDYLSWLQQKPGGAIKSLIYSTSTLDSGVPSRFSGSRSGTDFTLTISSLQPEDFATYYCLQYASSPPTFGGGTKVEIK",1.59
4,"B5(H3L1) (antibody, V domains shown, Humanized VH and VL fused to constant regions of human IgG4 heavy chain and kappa light chain; also called humanized B5 with B5/H3 heavy chain and B5/L1 light chain) VH: QVQLVQSGAVVKKPGASVKMSCKASGYTFTGYYMNWMRQAPGQSLEWLAVINPYNGDTAYNRKFKGRATLTVDKSTSTAYMELSSLRSEDTAVYYCARDDGYHVRFFDVWGQGTTVTVSS VL: DIQMTQSPSSLSASVGDRVTITCRSSQDISDYLSWLQQKPGGAPKSLIYSTSTLDSGVPSRFSGSRSGTDFTLTISSLQPEDFATYYCLQYASSPPTFGGGTKVEIK",6.77
5,"B5(H3L3) (antibody, V domains shown, Humanized VH and VL fused to constant regions of human IgG4 heavy chain and kappa light chain; also called humanized B5 with B5/H3 heavy chain and B5/L3 light chain) VH: QVQLVQSGAVVKKPGASVKMSCKASGYTFTGYYMNWMRQAPGQSLEWLAVINPYNGDTAYNRKFKGRATLTVDKSTSTAYMELSSLRSEDTAVYYCARDDGYHVRFFDVWGQGTTVTVSS VL: DIQMTQSPSSLSASVGDRVTITCRSSQDISDYLSWLQQKPGGAIKSLIYSTSTLDSGVPSRFSGSRSGTDYTLTISSLQPEDFATYYCLQYASSPPTFGGGTKVEIK",2.91
6,"B5(H4L1) (antibody, V domains shown, Humanized VH and VL fused to constant regions of human IgG4 heavy chain and kappa light chain; also called humanized B5 with B5/H4 heavy chain and B5/L1 light chain) VH: QVQLRQSGAVVKKPGASVKMSCKASGYTFTGYYMNWMRQAHGQSLEWLAVINPYNGDTAYNRKFKGRATLTVDKSTSTAYMELSSLRSEDTAVYYCVRDDGYHVRFFDVWGQGTTVTVSS VL: DIQMTQSPSSLSASVGDRVTITCRSSQDISDYLSWLQQKPGGAPKSLIYSTSTLDSGVPSRFSGSRSGTDFTLTISSLQPEDFATYYCLQYASSPPTFGGGTKVEIK",5.32
7,"B7(H4L5) (antibody, V domains shown, Humanized VH and VL fused to constant regions of human IgG4 heavy chain and kappa light chain; also called humanized B7 with B7/H4 heavy chain and B7/L5 light chain) VH: EVQLVQSGAEVKKPGASVKVSCKASGYTFSDYNLNWVRQAPGQTLEWMGLINLDSAATVYNQKFKGKATMTRDQSTSTAYMELSSLRSEDTAVYYCASYDYWGQGTLVTVSS VL: DIQMTQSPSSLSASVGDRVTITCRASQDISHYLNWFQQKPGKAPKLLIYETSTLDFGVPSRFSGSGSGTDFTFTISSLQPEDIATYYCLQYATYPLTFGGGTKVEIK",1.35
8,"B7(H1L5) (antibody, V domains shown, Humanized VH and VL fused to constant regions of human IgG4 heavy chain and kappa light chain; also called humanized B7 with B7/H1 heavy chain and B7/L5 light chain) VH: EVQLVQSGAEVKKPGASVKVSCKASGYTFSDYNLNWVRQAPGQGLEWMGLINLDSAATVYNQKFKGRVTMTRDTSTSTVYMELSSLRSEDTAVYYCASYDYWGQGTLVTVSS VL: DIQMTQSPSSLSASVGDRVTITCRASQDISHYLNWFQQKPGKAPKLLIYETSTLDFGVPSRFSGSGSGTDFTFTISSLQPEDIATYYCLQYATYPLTFGGGTKVEIK",1.59
9,"B7(H1L8) (antibody, V domains shown, Humanized VH and VL fused to constant regions of human IgG4 heavy chain and kappa light chain; also called humanized B7 with B7/H1 heavy chain and B7/L8 light chain) VH: EVQLVQSGAEVKKPGASVKVSCKASGYTFSDYNLNWVRQAPGQGLEWMGLINLDSAATVYNQKFKGRVTMTRDTSTSTVYMELSSLRSEDTAVYYCASYDYWGQGTLVTVSS VL: DIQMTQSPSSLSASVGDRVTITCRASQDISHYLNWFQQKPGKAPKRLIYETSTLDFGVPSRFSGSGSGTDFTFTISSLQPEDIATYYCLQYATYPLTFGGGTKVEIK",0.9
